Results on ten molecules are retold here after US20170253670A1 (Hoffmann-La Roche, published 2017).

Test [1] concerns the target T1, human FolR1 on cells (HeLa, SKOV3, HT-29, transfected HEK) (human, UniProt P15328 25-234).
T1 construct: whole, on cells
Briefly: flow cytometry on HeLa cells, fluorescently labeled anti-human secondary antibody.

The target of test [2] is T2, human FolR1 monovalent Fc fusion, biotinylated (human, UniProt P15328 25-233, biotin on C-terminal Avi-tag ; biotin on the C-terminal Avi-tag of the Fc-knob chain (tag not in the letters)).
T2 construct: ECD linked to hinge of Fc-knob, co-expressed with Fc-hole; also called huFolR1; huFolR1-Fc; not shown: hinge-Fc(knob)-Avi-tag fused to the ECD, and the co-expressed Fc(hole) chain
Briefly: SPR ProteOn, Fab analyte, antigen on chip. The method, then: Immobilization of antigens (ligand): Recombinant antigens were diluted with PBST (10 mM phosphate, 150 mM sodium chloride pH 7.4, 0.005% Tween 20) to 10 μg/ml, then injected at 30 μl/minute in vertical orientation. Injection of analytes: For ‘one-shot kinetics’ measurements, injection direction was changed to horizontal orientation, two-fold dilution series of purified Fab (varying concentration ranges) were injected simultaneously along separate channels 1-5, with association times of 200 s, and dissociation times of 600 s. Buffer (PBST) was injected along the sixth channel to provide an “in-line” blank for referencing. Association rate constants (kₒₙ) and dissociation rate constants (koff) were calculated using a simple one-to-one Langmuir binding model in ProteOn Manager v3.1 software by simultaneously fitting the association and dissociation sensorgrams. The equilibrium dissociation constant (KD) was calculated as the ratio koff/kₒₙ.

In test [3] the target is T3, cyno FolR1 on transiently transfected HEK cells (cynomolgus).
T3 construct: whole, on cells; also called cyFolR1
Briefly: flow cytometry on HEK cells transiently transfected with cyno FolR1, fluorescently labeled anti-human secondary antibody. The method, then: Cross-reactivity of the FolR1 antibodies to cyno FolR1 was addressed on HEK cells transiently transfected with cyFolR1 by flow cytometry. The antibodies were detected with a fluorescently labeled anti-human secondary antibody.
(§1) Target cells as indicated were harvested with Cell Dissociation Buffer, washed with PBS and resuspended in FACS buffer. The antibody staining was performed in a 96well round bottom plate. Therefore 200′000 cells were seeded per well. The plate was centrifuged for 4 min at 400 g and the supernatant was removed. The test antibodies were diluted in FACS buffer and 20 μl of the antibody solution were added to the cells for 30 min at 4° C.
Background: A flow cytometer gives signals particle by particle.

The target in test [4] is T4, recombinant human BCMA Fc(kih) (human, UniProt Q02223 4-53, biotin on avi-tag where coupled to SA chip ; biotin on the avi-tag of the Fc-knob chain where coupled to the SA chip (tag not in the letters)).
T4 construct: also called huBCMA Fc(kih); huBCMA; not shown: human IgG1 hinge-Fc(knob)-avi fused to the ECD, and the unfused Fc(hole) chain
T4 chain: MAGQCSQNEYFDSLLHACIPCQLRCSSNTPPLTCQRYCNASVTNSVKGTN
The test can be described thus: SPR Biacore, bivalent avidity, BCMA-Fc on chip (Experiment 3). The method, then:
(§2) Assessment of binding of anti-BCMA antibodies to recombinant BCMA by surface plasmon resonance (SPR) as follow. All SPR experiments were performed on a Biacore T200 at 25° C. with HBS-EP as running buffer (0.01 M HEPES pH 7.4, 0.15 M NaCl, 3 mM EDTA, 0.005% Surfactant P20, Biacore, Freiburg/Germany). The avidity of the interaction between anti-BCMA antibodies and recombinant BCMA Fc(kih) (human, cynomolgus and murine) was determined (Tables 38-40). Biotinylated recombinant human, cynomolgus and murine BCMA Fc(kih) were directly coupled on a SA chip following instructions (Biacore, Freiburg/Germany). The immobilization level ranged from 80 to 120 RU. […] The dissociation was monitored for 180 seconds. Bulk refractive index differences were corrected for by subtracting the response obtained on the reference flow cell. Here, the anti-BCMA antibodies were flown over an empty surface previously activated and deactivated as described in the standard amine coupling kit. Apparent kinetic constants were derived using the Biacore T200 Evaluation Software (v 1.0, Biacore AB, Uppsala/Sweden), to fit rate equations for 1:1 Langmuir binding by numerical integration, despite the bivalency of the interaction for comparison purposes.
In general terms: Surface plasmon resonance follows binding to a sensor surface in real time, without labels.

In test [5] the target is T4, recombinant human BCMA Fc(kih). Briefly: SPR Biacore, bivalent avidity, BCMA-Fc on chip (Experiment 2). The method, then: as §2
Test [6] shares this target. Briefly: SPR Biacore, binder captured via anti-Fab, BCMA-Fc analyte.
Test [7] has as its target T5, recombinant murine BCMA Fc(kih) (murine, UniProt O88472 2-49, biotinylated at the avi-tag of the Fc knob chain (not in the letters)).
T5 construct: also called muBCMA Fc(kih); not shown: human IgG1 hinge-Fc(knob)-avi and the unfused Fc(hole) chain
T5 chain: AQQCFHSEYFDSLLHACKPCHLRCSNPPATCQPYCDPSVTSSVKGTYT
Described as above.

Test [8] addresses T6, MUC1 SEA-avi-His, biotinylated (human, biotin on avi tag).
T6 construct: E. coli derived; also called MUC1 antigen; SEA domain of human MUC1
T6 chain: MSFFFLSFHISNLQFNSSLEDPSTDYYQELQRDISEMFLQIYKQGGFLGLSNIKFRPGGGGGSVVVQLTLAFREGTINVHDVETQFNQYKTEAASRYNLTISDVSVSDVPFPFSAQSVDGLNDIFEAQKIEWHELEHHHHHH
Briefly: SPR (ProteOn XPR36), biotinylated MUC1 on NLC chip, TCB as analyte. The method, then:
Binding of the produced MUC1-specific TCBs was measured by surface plasmon resonance using a ProteOn XPR36 instrument (Biorad) at 25° C. Biotinylated MUC1 antigen and an unrelated biotinylated antigen were immobilized on NLC chips by neutravidin capture. Immobilization of the antigens was performed as described before. […] Buffer (PBST) was injected along the sixth channel to provide an “in-line” blank for referencing.
Regeneration was performed in horizontal orientation using 10 mM Glycine, pH 1.5 at a flow rate of 100 ul/min for a contact time of 30 s.

In test [9] the target is T1, human FolR1 on cells (HeLa, SKOV3, …). Briefly: cell-based or functional assay.
Test [10] shares this target. Briefly: cell-based or functional assay. This is another data set of the same source.
The target is the same in test [11]. Briefly: flow cytometry, HeLa cells. The method, then:
as §1

Test [12] has the same target. The test can be described thus: cell-based or functional assay. This is another data set of the same source.

Like-named read-outs stand apart in the source and are kept apart here.

T1 sequence (P15328 25-234): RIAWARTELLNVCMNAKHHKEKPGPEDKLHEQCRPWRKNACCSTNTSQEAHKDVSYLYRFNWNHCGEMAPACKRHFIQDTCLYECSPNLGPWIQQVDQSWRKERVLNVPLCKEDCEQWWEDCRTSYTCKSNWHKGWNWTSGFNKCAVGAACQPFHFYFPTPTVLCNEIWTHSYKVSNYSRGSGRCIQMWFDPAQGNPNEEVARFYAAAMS
T2 sequence (P15328 25-233 limits assumed): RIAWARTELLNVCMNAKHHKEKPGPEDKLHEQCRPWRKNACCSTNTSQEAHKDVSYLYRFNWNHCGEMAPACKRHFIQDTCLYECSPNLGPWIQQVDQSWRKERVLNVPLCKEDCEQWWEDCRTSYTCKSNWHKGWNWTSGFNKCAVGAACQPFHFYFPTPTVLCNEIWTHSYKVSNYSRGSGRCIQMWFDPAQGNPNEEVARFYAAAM

B1: 14E4 IgG (antibody, V domains shown)
VH: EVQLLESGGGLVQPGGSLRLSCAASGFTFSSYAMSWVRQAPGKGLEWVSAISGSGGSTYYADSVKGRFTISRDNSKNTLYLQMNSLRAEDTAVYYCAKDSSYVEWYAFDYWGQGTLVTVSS
VL: EIVLTQSPGTLSLSPGERATLSCRASQSVSSSYLAWYQQKPGQAPRLLIYGASSRATGIPDRFSGSGSGTDSTLTISRLEPEDFAVYYCQQPTSSPITFGQGTKVEIK
notes: human IgG1
As for B1, the binding result in [1] was “no binding (tested: 50 µg/ml)”.

B2: 15H7 Fab (Fab, V domains shown)
VH: QVQLVQSGAEVKKPGASVKVSCKASGYTFTSYYMHWVRQAPGQGLEWMGIINPSGGSTSYAQKFQGRVTMTRDTSTSTVYMELSSLRSEDTAVYYCARNYYLFSTSFDYWGQGTLVTVSS
VL: QAVVTQEPSLTVSPGGTVTLTCGSSTGAVTTSNYANWVQEKPGQAFRGLIGGTNKRAPGTPARFSGSLLGGKAALTLSGAQPEDEAEYYCALWYSNLWVFGGGTKLTVL
notes: as m35
For B2, the Kd in [2] was 13.4 nM.

B3: 21A5 IgG (antibody, V domains shown)
VH: not shown
VL: B2 VL
notes: human IgG1
As to B3, the “EC50 (read off the curve)” value in [3] is about 6 µg/mL.

B4: pSCHLI373 anti-BCMA IgG (antibody, V domains shown)
VH: EVQLVESGGGLVKPGGSLRLSCAASGFSFSNSWMNWVRQAPGKGLEWVGTIRQKTYGGTTDYAAPVKGRFTISRDDSKNTLYLQMNSLKTEDTAVYYCTTGGLFGYWDYWGQGTLVTVSS
VL: B2 VL
Take B4: the Kd in test [4] came out at 12.1 nM; in [5] it was 23 nM; in test [6], 135 nM; in test [7], 724 nM.

B5: 16D5 IgG (antibody, V domains shown)
VH: not shown
VL: B2 VL
notes: human IgG1
B5: the concentration for a half-maximal effect (EC50 (read off the curve)) in test [3] is about 7 µg/mL.

B6: 58D6 MUC1-specific CLC TCB (bispecific antibody)
heavy 1: not shown
heavy 2: not shown
light: QAVVTQEPSLTVSPGGTVTLTCGSSTGAVTTSNYANWVQEKPGQAFRGLIGGTNKRAPGTPARFSGSLLGGKAALTLSGAQPEDEAEYYCALWYSNLWVFGGGTKLTVLRTQPKAAPSVTLFPPSSEELQANKATLVCLISDFYPGAVTVAWKADSSPVKAGVETTTPSKQSNNKYAASSYLSLTPEQWKSHRSYSCQVTHEGSTVEKTVAPTECS
notes: also called 58D6 TCB
As to B6, the binding result in test [8] was “binds”.

B7: 110A5 MUC1-specific CLC TCB (bispecific antibody)
heavy 1: not shown
heavy 2: not shown
light: B6 light
notes: also called 110A5 TCB
On to B7, for which the binding result in test [8] is on record as “binds”.

B8: 9D11 TCB S100aA (bispecific antibody, human IgG1, kappa, L234A L235A)
heavy 1: not shown
heavy 2: QVQLVQSGAEVKKPGASVKVSCKASGYTFTSYYMHWVRQAPGQGLEWMGIINPSGGPTSYAQKFQGRVTMTRDTSTSTVYMELSSLRSEDTAVYYCARGDFAWLDYWGQGTLVTVSSASTKGPSVFPLAPSSKSTSGGTAALGCLVKDYFPEPVTVSWNSGALTSGVHTFPAVLQSSGLYSLSSVVTVPSSSLGTQTYICNVNHKPSNTKVDKKVEPKSCDKTHTCPPCPAPEAAGGPSVFLFPPKPKDTLMISRTPEVTCVVVDVSHEDPEVKFNWYVDGVEVHNAKTKPREEQYNSTYRVVSVLTVLHQDWLNGKEYKCKVSNKALGAPIEKTISKAKGQPREPQVCTLPPSRDELTKNQVSLSCAVKGFYPSDIAVEWESNGQPENNYKTTPPVLDSDGSFFLVSKLTVDKSRWQQGNVFSCSVMHEALHNHYTQKSLSLSPGK
light 1: not shown
light 2: QAVVTQEPSLTVSPGGTVTLTCGSSTGAVTTSNYANWVQEKPGQAFRGLIGGTNKRAPGTPARFSGSLLGGKAALTLSGAQPEDEAEYYCALWYSNLWVFGGGTKLTVLSSASTKGPSVFPLAPSSKSTSGGTAALGCLVKDYFPEPVTVSWNSGALTSGVHTFPAVLQSSGLYSLSSVVTVPSSSLGTQTYICNVNHKPSNTKVDKKVEPKSC
As to B8, in [9], the “EC50 killing 24 h, SKov-3” value was found to be 0.00194 nM.

B9: Mov19 FolR1 TCB 2+1 inverted (bispecific antibody)
chain 1: not shown
chain 2: QVQLQQSGAELVKPGASVKISCKASGYSFTGYFMNWVKQSHGKSLEWIGRIHPYDGDTFYNQNFKDKATLTVDKSSNTAHMELLSLTSEDFAVYYCTRYDGSRAMDYWGQGTTVTVSSASTKGPSVFPLAPSSKSTSGGTAALGCLVKDYFPEPVTVSWNSGALTSGVHTFPAVLQSSGLYSLSSVVTVPSSSLGTQTYICNVNHKPSNTKVDKKVEPKSCDKTHTCPPCPAPEAAGGPSVFLFPPKPKDTLMISRTPEVTCVVVDVSHEDPEVKFNWYVDGVEVHNAKTKPREEQYNSTYRVVSVLTVLHQDWLNGKEYKCKVSNKALGAPIEKTISKAKGQPREPQVCTLPPSRDELTKNQVSLSCAVKGFYPSDIAVEWESNGQPENNYKTTPPVLDSDGSFFLVSKLTVDKSRWQQGNVFSCSVMHEALHNHYTQKSLSLSPGK
chain 3: DIELTQSPASLAVSLGQRAIISCKASQSVSFAGTSLMHWYHQKPGQQPKLLIYRASNLEAGVPTRFSGSGSKTDFTLNIHPVEEEDAATYYCQQSREYPYTFGGGTKLEIKRTVAAPSVFIFPPSDEQLKSGTASVVCLLNNFYPREAKVQWKVDNALQSGNSQESVTEQDSKDSTYSLSSTLTLSKADYEKHKVYACEVTHQGLSSPVTKSFNRGEC
B9: in test [10], the “EC50 killing 24 h, SKov-3” value amounted to 0.00075 nM and the “EC50 killing 48 h, SKov-3” value is 0.05 pM.

B10: 9D11 FolR1 TCB 1+1 head-to-tail (crossfab) (bispecific antibody, V domains shown)
VH: QVQLVQSGAEVKKPGASVKVSCKASGYTFTSYYMHWVRQAPGQGLEWMGIINPSGGPTSYAQKFQGRVTMTRDTSTSTVYMELSSLRSEDTAVYYCARGDFAWLDYWGQGTLVTVSS
VL: not shown
notes: 1+1 head-to-tail with CD3 CrossFab on the same arm
For B10, a half-maximal response in [11] (EC50) required 44.2 nM. Besides, in test [12], the “EC50 killing 24 h (pM), SKOV3” value came to 4.73 pM.

Broadly, the EC50 (read off the curve) is the concentration needed to bring the measured effect to its halfway point. High values mean lower potency in that assay, low ones higher potency in that assay. By EC50 is commonly meant the midpoint of the concentration-response curve. Higher therefore signals a less potent agent.
